{
  "source": "paper PMC2800235",
  "biological_target": "MBP-transposase fusion protein (reconstituted ancestral Hsmar1 transposase) (human (reconstructed ancestral sequence of the human Hsmar1 transposon))",
  "test": "SEC",
  "data": [
    {"substance": "MBP-transposase fusion protein (reconstituted ancestral Hsmar1 transposase) (enzyme)", "values": [
      {"measurement": "stoichiometry N", "value": 2}
    ]}
  ]
}
